Data: publication PMC10140725 (Scientific Reports, 2023)

Key:
[1] = target: hemagglutinin (HA) of H1N1 influenza A strain A/Almaty/32/1998, mature HA1/HA2 trimer (Influenza A virus H1N1, strain A/Almaty/32/1998); experiment: crystal structure
[2] = target: hemagglutinin (HA) of H1N1 influenza A strain A/Jiangsu/ALS1/2011, mature HA1/HA2 trimer (Influenza A virus H1N1, strain A/Jiangsu/ALS1/2011); experiment: crystal structure

Substance	stoichiometry N [1]	stoichiometry N [2]
hemagglutinin (HA) of H1N1 influenza A strain A/Almaty/32/1998, mature HA1/HA2 trimer (natural protein)	3	–
hemagglutinin (HA) of H1N1 influenza A strain A/Jiangsu/ALS1/2011, mature HA1/HA2 trimer (natural protein)	–	3
